Test: yeast display, Sf9 membrane polyspecificity reagent, FACS + sequencing; frameworks hold sequencing errors
In short: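 Galactose-induced (36–48 hours) yeast carrying a synthetic nanobody display library were exposed to 10% biotinylated, detergent-solubilized Sf9 membrane reagent at 4 °C for 1 hour. FACS followed streptavidin microbead enrichment, using low and high (top ~1%) gates for expression (anti-HA) and reagent binding (streptavidin). Colony PCR, MiSeq 2 × 250 sequencing and CDR-length filtering followed. Labels for polyreactivity reflect the gate of origin.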

Sequence | polyreactivity (PSR sort gate)
QVQLVESGGGLVQAGGSLRLSCAASGFTFASNDMGWYRQAPGKERELVASITKGGGRTYYADSVKGRFTISRDNAKNTVYLQMNSLKPEDTAVFYCAARQLIKYDYWGQGTQVTVSS | low polyreactivity
QVQLVESGGGLVQAGGSLRLSCAASGFTFRYNAMGWYRQAPGKERELVASITYSGGTTTYADSVKGRFTISRDNAKNTVYLQMNSLKPEDTAVYYCAARGYFSGYRVYYWGQGTQVTVSS | high polyreactivity
QVQLQESGGGLVQVGGSLRLSCAASGTIFIYGFLGWNRQAPGKERDLVASINLGGITNYADSVKGRFTISRDNAKITVYLQMNSLKPEDTAVYYCAADGGESAWGGYDYWGQGTQGTVSS | low polyreactivity
QVQLVESGGGLVQAGGSLRLSCAASGSIFGFNAMGWYRQAPGKERELVAAINNGGSTNYADSVKGRFTISRDNAKNTVYLQMNSLKPEDTAVYYCAARLNYIRRGYWGQGTQVTVSS | high polyreactivity
QVQLVESGGGLVQAGGSLRLSCAASGRIFDIYAMGWYRQAPGKERELVAAITSGGSTYYADSVKGRFTNSRDNAKNTVYFQMNILKPEYTAVYYCAADSVLLKDTGYDYWGKGTQVTVSS | low polyreactivity
LVQLVESGGGLVQAGGSLRLSCAASGSTFFYAMGWYRQAPGKERELVAGIVWSGGSTYYADSVKGRFTISRDNAKNTVYLQMNSLKPEDTAVYYCPAEYTDDYWGQGTQVTVSS | low polyreactivity
QVQLQESGGGLVQACGSLCLICAASSYFSTYYSMGWYRKAPSKGRELVAAIDSGSSTNYADSVEGRFTISRDNAKNTVYLQMISLKPGDTAVYYCAAPWGHLVVHPYRGQGTQVTVSS | high polyreactivity
QVQLVESGGGLVQAGGSLRLSCAASGGTFYFYAMGWDRQAPGKERELVAAISRSVGSTYYADSVKGRFTISRDNAKNTVYLQMNSLKPEDTAVYYCAARYTGGGIRYDYWGQGTQVTLSS | high polyreactivity
QVQLVESGGGLVQARGSLRLSCAASGSTLTRNTMGGYRQAPGKERELVAGITRSGSSTYYADSVKGRFTISRDNAKNTVYLQMNSLKPEDTAVYYCAAPYRYRQNLGYWGQGTQVTVSS | high polyreactivity
QVQLVESGGGLVQAGGSLRLSCAASGRTFRVYAIGWYRQAPGKERELVAAISGSGGSTYYADSVKGRFTISRDNAKNTVYLQMISLKPEDTAVYYCAKGSYRSYWYRAYDYWGQGTQVTVSS | low polyreactivity
QVQLVESGGGLVQAGGSLRLSCAASGSTFYRYAMGWYRQAPGKERELVAAITARGGSTYYADSVKGRFTISRDNAKNTVYLQMNSLKPEDTAVYYCAADWLSTKNDYWGQGTQVTESS | low polyreactivity
QVQLVESGGGLVQAGGSLRLSCAASGRIFGAYAMGWSRQAPGKERELVAAITSRGGNTYYADSVKGRFTISRDNAKNTVYLQMNSVKPEDTAVYYCAARHDKRRQYYVGQSAFDYWGQGTQVTVSS | low polyreactivity
QVQLVESGGGLVQAGGSLRVSCAASGRIFWYNDMGWYRQAPGKERELVAAITARGTRTHYADSVKGRFTISRDNAKKTVYLQMNSLKPEDTAVYYCAKGWYTVVWDAPVFSERGEYWGQGTQVTVSS | low polyreactivity
QDQLVESVGGVVQAGGSLRLSCAASGRIIRTYAMGWYRQAPGKERELVATISYSSGRTYYADSVKGRFTISRDNAKNTVYLQMNSLKPEDTAVYYCARRRRSGSRQYYYWGQGTQVTVSS | high polyreactivity
QVQLVESGGGLVQAGGSLRLSCAASGLIFPSYTMGWYRQAPGKDRELVAAITFSGDSTNYADSVKGRFTISRDNAKNTVYLQMNSLKPEDTAVYNCAASQVSDTTRFGYWGQGTQVTVSS | low polyreactivity
QVQLVESGGGLVQAGGSLRLSCAASGSTFGFNGMGWYRQAPGKERELVAAIRSSGGSTYYADSVKGRFTISRDNAKNTVYLQMNSLKPEDTAVYYCAADYYTYGFANWYLWYDYWGQGTQVTVSS | high polyreactivity

Sequence | polyreactivity (PSR sort gate)
QVQLVESGGGLVQAGGSLRLSCAASGRTFVGNAMGWYRQAPGKERELVATITRRGGSTYYADSVKGRFTISRDNAKNTVYLQMNSLKPEDTAVYYCAAGSQPGRKYYYWGQGTQVTVSS | high polyreactivity
QVQLVESGGGLLQAGGSLRLSCADRRTLSFYAKGCSIQAPGKERELVAAISRSGGSTYYADSEKGRFTISRDNAKNTGKLQMNRLKPEDTAVYYFAARSSGGYDYWGQGTQVTVSS | high polyreactivity
QVQLVESGGGLVQAGGILRLSCAASGIIFRKNAMGWYRQAPGKERELVAAISSTGASTNYADSVKGRFTISRDNAKNTVYLQMNSLKPEDTAVYYCAASRTRYWKYDYWGPGTQVTVSS | high polyreactivity
QVQLVESGVGLVQAGGSLRLSCAASGRTFAYYAMGWNRQAPWKERELVARITSDGSTYYADSVKGRFTISRDNAKNTVYLQMNSLIPEDTAVYYCNARWRYKWKYDHWGQGTQVTVSS | low polyreactivity
QVQLQESGGGKVHAGGSLRLSCAASGSISYASGMVWYRQAPGKEREFVASIDPGAITNYADSVKGRFTNSHDNAKNTVYLQMNSLKPEDTAVYYCAARVSTTDSHGYWGQGTQVTVSS | high polyreactivity
QVQLVESGGGLVQAGGSVRLSCAASGRIFGYYAMGWYRQAPGKERELVAAINWNVGSTYYADSVKGRFTISRDNAKNTVYLQMNSLKPEDTAVYYCAAVGRYSRLLGKYDYWGQGTQVTVSS | low polyreactivity
QVQLVESGGGLVQAGGSLRLSCAASGLTFARYAMGWYRQAPGKERELVAGISWSGGRTYYADSVKGRFTISRDNAKNTVYLQMNSLKPEDTAVYYCATTQFQRSGYYYWGQGTQVTVSS | high polyreactivity
QVQLVESGGGLVQAGGSLRLSCAASGSIFYHYAMGWYRQAPGKERELVAAISRSGGRTYYADSVKGRFTISRDNAKNTVYLQMNSLKPEDTAVYYCNKDYYYPNSWPKYDYWGQGTQVTVSS | low polyreactivity
QVQLVESGGGLVQAGGSLRLTCAASGRIFGVYVMGWYRQAPGKERELVAAISWGGGTYYADSVKGRFTISRDNAKNNVYLQMNSLKPEDTSVYYCNAESYYTMYYWGQGTQVNVSS | low polyreactivity
QVQLVESGGGLVQAGGSLRLSCAASGRIFATYAMGWSRQAPGKERELVAAISDGGGITYYADSVKGRFTISRDNAKNTVYLQMNSLKPDDTAVYYCARTYARYNFGYWGQGTQVTVSS | low polyreactivity
QVQLVESGGGLVQAGGSLRLSCAASGLTFIVYAMGWYRPAPGKERELVADITWSGGSTYYADSLKGRFTISRDNAKNTVYLQMNSLKPEATAVYYCNRQSAKIMDYWGQGTQVTVSS | low polyreactivity
QVQLVESGGGLVQAGGSLRLSCAASGSTFTVYAMGWYRQAPGKERELVAAITNGGRTYYADSVKGRFTISRDNAKNTVYLQMNSLKPEDTAVYYCAADVYYDDYLYDYWGQGTQVTVSS | high polyreactivity
QVQLVESGGGLVQAGGSLRLSCAASGFIFPRYAMGWYRQAPGKERELVAAISYSGGSTYYADSVKGRFTISRDNAKNTVYLQMNSLKPEDTAVYYCAARLFKDSWMDYWGQGTQVTVSS | high polyreactivity
QVQLVESGGCLVQAGGSLRLSCAASGRIFGYYAMGWYRQEPWKERELVAAISYSGGTTYYADSVKGRFTISRDNAKNTVYLQMNSLKPEDTAVYYCAAESYTYYADYGYGYWGQGTQVSVSS | high polyreactivity
QVQLVESGGGLVQAGGSLRLSCAASGSIFQRYAMGWYRQAPGKEREFVAAISGRGGSTYYADSVKGRFTISRDNAKNTVYLQMNSLKPEDTAVYSCAADSSRFYGRPRYYYWGQGTQVTVSS | high polyreactivity
QVQLVESGGGLVQAGGSLRLSCAASGRTFSWYVMGLYRQAPGKERELVASISGSGGSTYYADSVKGRFTISRDNAKNTVYLQMNSLKPEDTAVYYCARDYFFRSRSDYWGQGTQVTVSS | high polyreactivity

From the nanobody polyreactivity screen of Harvey et al. (2022)
